According to paper doi:10.1101/2020.10.21.349639 (bioRxiv, 2020):

Biological target: T1, NorC (wild type) (Staphylococcus aureus subsp. aureus COL …)
T1 chain: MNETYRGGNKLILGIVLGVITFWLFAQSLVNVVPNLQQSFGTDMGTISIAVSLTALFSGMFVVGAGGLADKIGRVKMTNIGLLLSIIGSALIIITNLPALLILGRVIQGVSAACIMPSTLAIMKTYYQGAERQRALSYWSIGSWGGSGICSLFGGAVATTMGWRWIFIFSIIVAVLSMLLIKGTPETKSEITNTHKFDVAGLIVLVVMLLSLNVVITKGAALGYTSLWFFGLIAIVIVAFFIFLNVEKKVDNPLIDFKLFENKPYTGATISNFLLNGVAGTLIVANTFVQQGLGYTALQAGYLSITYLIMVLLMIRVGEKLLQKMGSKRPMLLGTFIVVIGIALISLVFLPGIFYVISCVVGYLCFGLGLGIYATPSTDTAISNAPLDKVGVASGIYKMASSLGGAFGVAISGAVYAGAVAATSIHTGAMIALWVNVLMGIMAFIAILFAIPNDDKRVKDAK
Assay: ITC

Kd: 38 ± 5 nM
B1: single-domain Indian camelid antibody (ICab), Zn2+-bound (VHH)
VHH: QVQLEESGGGSVQAGGSLRLSCAASGYMYSTYSTYCMGWFRQAPGKEREGVAFIKRGDHSTYYTDSVKGRFTISQDSAKNTVSLQMNNLKPEDTAIYYCAADFAHSFLLSVHSGAGQYSYWGQGTQVTVSS
